Biological target: factor VIIIa (UniProt P00451)
Sequence (P00451 other isoform, or with tags, fused parts or gaps): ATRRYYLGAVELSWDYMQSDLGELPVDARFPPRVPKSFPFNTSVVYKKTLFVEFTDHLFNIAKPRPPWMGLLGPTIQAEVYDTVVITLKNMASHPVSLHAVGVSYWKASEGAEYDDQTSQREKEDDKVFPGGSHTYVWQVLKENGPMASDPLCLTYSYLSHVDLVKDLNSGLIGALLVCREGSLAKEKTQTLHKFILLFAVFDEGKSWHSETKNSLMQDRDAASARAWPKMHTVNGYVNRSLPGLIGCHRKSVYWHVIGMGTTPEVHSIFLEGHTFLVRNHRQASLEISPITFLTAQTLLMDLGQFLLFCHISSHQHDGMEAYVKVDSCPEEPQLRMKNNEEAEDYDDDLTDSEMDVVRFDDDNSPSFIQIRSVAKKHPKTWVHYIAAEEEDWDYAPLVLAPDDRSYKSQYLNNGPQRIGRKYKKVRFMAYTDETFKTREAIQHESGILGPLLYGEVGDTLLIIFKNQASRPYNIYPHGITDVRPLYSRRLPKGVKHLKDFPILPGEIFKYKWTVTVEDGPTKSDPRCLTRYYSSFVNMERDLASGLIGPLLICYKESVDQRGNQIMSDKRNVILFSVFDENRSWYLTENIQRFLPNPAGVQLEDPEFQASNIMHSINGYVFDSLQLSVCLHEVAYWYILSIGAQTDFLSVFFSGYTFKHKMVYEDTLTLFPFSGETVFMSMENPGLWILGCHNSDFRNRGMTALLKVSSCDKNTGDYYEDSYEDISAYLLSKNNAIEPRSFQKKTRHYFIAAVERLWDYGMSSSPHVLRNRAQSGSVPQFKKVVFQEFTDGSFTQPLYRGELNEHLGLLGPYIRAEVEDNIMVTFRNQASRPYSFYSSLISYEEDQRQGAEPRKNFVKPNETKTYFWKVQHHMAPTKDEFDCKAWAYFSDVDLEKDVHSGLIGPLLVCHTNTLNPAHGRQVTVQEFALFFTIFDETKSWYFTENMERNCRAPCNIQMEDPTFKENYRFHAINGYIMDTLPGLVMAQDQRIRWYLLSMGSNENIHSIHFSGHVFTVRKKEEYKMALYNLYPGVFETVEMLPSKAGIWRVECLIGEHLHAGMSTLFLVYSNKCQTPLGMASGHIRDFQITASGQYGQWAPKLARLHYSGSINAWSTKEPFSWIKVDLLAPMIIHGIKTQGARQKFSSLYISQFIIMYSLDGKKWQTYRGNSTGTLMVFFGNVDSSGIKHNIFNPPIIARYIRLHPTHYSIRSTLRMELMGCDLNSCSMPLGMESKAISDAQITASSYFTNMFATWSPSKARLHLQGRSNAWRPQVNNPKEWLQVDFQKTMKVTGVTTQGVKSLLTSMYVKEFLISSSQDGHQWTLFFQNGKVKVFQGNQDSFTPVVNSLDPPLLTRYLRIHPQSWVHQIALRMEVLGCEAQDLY

Substance	X-activation rate, PL-minus system (14 nM VIIIa, 400 nM X)	X-activation rate, PL-plus system (70 pM VIIIa, 0.5 nM IXa, 15 nM X)	rate of factor X activation with phospholipid, factor VIIIa increased from 70 pM to 14 nM
IXaD332Y	NM	NM	IXaD332Y ~4.1 nM/min
IXaL330I	0.94 nM/min	0.95 nM/min	–
IXaL337I	NM	NM	IXaL337I ~3.2 nM/min
IXaPCEGF1	2.71 nM/min	NM	–
IXaQ50P	2.81 nM/min	NM	–
IXaR333L	NM	NM	IXaP333L ~2.7 nM/min
IXaR333Q	NM	NM	IXaR333Q ~2.4 nM/min
IXaR338Q	2.22 nM/min	2.53 nM/min	–
IXaT335A	1.83 nM/min	1.92 nM/min	–
